Assay results as given in the supplement of paper PMC9233669.
This sample holds only a part of the variants without activity.

What was measured:
biotinyl-Met-oxazolone = assay: self-aminoacylation, catalytic enhancement (BMO) (fold over background); higher = more active; k-Seq, kA / k0A0; sequences stand for … in GGGAAUGGAUCCACAUCUACGAAUUC…UUCACUGCAGACUUGACGAAGCUG
Procedure, shortened: (§1)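 Mutagenized RNA pools (0.43 μM; 21-nt variable region) were treated with 2–1250 μM of each biotinyl-aminoacyl-oxazolone. Conditions were 50 μL HEPES/NaCl/KCl/MgCl2/CaCl2 buffer, 5% acetonitrile, pH 6.9–7.0, room temperature, 90 minutes. Catalytic enhancement, the median kA relative to the uncatalyzed rate, was derived from streptavidin capture, qPCR and Illumina sequencing.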

biotinyl-Trp-oxazolone = assay: self-aminoacylation, catalytic enhancement (BWO) (fold over background); higher = more active; k-Seq, kA / k0A0; sequences stand for … in GGGAAUGGAUCCACAUCUACGAAUUC…UUCACUGCAGACUUGACGAAGCUG
Procedure, shortened: as §1

biotinyl-Leu-oxazolone = assay: self-aminoacylation, catalytic enhancement (BLO) (fold over background); higher = more active; k-Seq, kA / k0A0; sequences stand for … in GGGAAUGGAUCCACAUCUACGAAUUC…UUCACUGCAGACUUGACGAAGCUG
Procedure, shortened: as §1

biotinyl-Val-oxazolone = assay: self-aminoacylation, catalytic enhancement (BVO) (fold over background); higher = more active; k-Seq, kA / k0A0; sequences stand for … in GGGAAUGGAUCCACAUCUACGAAUUC…UUCACUGCAGACUUGACGAAGCUG
Procedure, shortened: as §1

biotinyl-Ile-oxazolone = assay: self-aminoacylation, catalytic enhancement (BIO) (fold over background); higher = more active; k-Seq, kA / k0A0; sequences stand for … in GGGAAUGGAUCCACAUCUACGAAUUC…UUCACUGCAGACUUGACGAAGCUG
Procedure, shortened: as §1

biotinyl-Phe-oxazolone = assay: self-aminoacylation, catalytic enhancement (BFO) (fold over background); higher = more active; k-Seq, kA / k0A0; sequences stand for … in GGGAAUGGAUCCACAUCUACGAAUUC…UUCACUGCAGACUUGACGAAGCUG
Procedure, shortened: as §1

Sequence | self-aminoacylation (biotinyl-Met-oxazolone) | self-aminoacylation (biotinyl-Trp-oxazolone) | self-aminoacylation (biotinyl-Leu-oxazolone) | self-aminoacylation (biotinyl-Val-oxazolone) | self-aminoacylation (biotinyl-Ile-oxazolone) | self-aminoacylation (biotinyl-Phe-oxazolone)
AAGUUUACUAUUAGUCGCAAG [Fam3.1 aminoacylation ribozyme variant] | 1.59 | 2.02 | 1.49 | 1.76 | 1.83 | 2.72
AUUCACGUAGGUCAUCGGGUU [Fam2.2 aminoacylation ribozyme variant] | 2.4 | 2.93 | 2.54 | 2.74 | 2.03 | 14.9
AAGUUUGCUAAUGGUCCCAAG [Fam3.1 aminoacylation ribozyme variant] | 0.976 | 1.21 | 0.908 | 1 | 0.977 | 1.11
AUUCACCUGGGUAAUCGGGUG [Fam2.2 aminoacylation ribozyme variant] | 4.71 | 4.84 | 5.16 | 2.88 | 3.15 | 30.1
CGACUUCAAACAAUCGGUCAG [Fam1A.1 aminoacylation ribozyme variant] | 0.707 | 4.08 | 0.772 | 0.883 | 0.915 | 8.58
CCACACUGCAGGCAAUCGGUC [Fam1B.1 aminoacylation ribozyme variant] | 1.76 | 1.38 | 1.57 | 2.17 | 1.44 | 5.92
CUACUUCAAACAAUCCGUCCG [Fam1A.1 aminoacylation ribozyme variant] | 0.708 | 0.751 | 0.927 | 0.903 | 0.825 | 0.694
AUUACCCUGGGCAUCGAAUGA [Fam2.1 aminoacylation ribozyme variant] | 0.647 | 2.01 | 0.912 | 0.934 | 0.945 | 1.14
AUUGCCCUCGUCAUCGAGUGA [Fam2.1 aminoacylation ribozyme variant] | 3.34 | 3.9 | 3.58 | 2.08 | 2.21 | 17.4
AUUACCCGGGUCAUCGGGUGA [Fam2.1 aminoacylation ribozyme variant] | 13.9 | 12.4 | 14.7 | 7.9 | 6.62 | 132
CUACUUCAGAAAAUCGGUCUG [Fam1A.1 aminoacylation ribozyme variant] | 0.803 | 0.826 | 0.757 | 0.816 | 0.791 | 1.55
AAUACCCUGGUCAUUGAGUGA [Fam2.1 aminoacylation ribozyme variant] | 5.79 | 6.33 | 5.25 | 2.9 | 2.98 | 17.1
AUAACCCGGGUCAUCGAGUGA [Fam2.1 aminoacylation ribozyme variant] | 6.42 | 7.61 | 8.98 | 3.29 | 3.78 | 45.7
AAGUUUGCUAAGAUUCGCAAG [Fam3.1 aminoacylation ribozyme variant] | 0.647 | 1.04 | 0.86 | 0.867 | 0.986 | 1.13
AUUACCCGGGUCAUCCAGUGA [Fam2.1 aminoacylation ribozyme variant] | 4.59 | 5.93 | 4.86 | 3.05 | 3.39 | 28.6
CCCCACUUCAAGCAAUCGUUC [Fam1B.1 aminoacylation ribozyme variant] | 0.697 | 1.12 | 0.697 | 0.849 | 0.898 | 1.77
CUACUUCACACACUCGGUCUG [Fam1A.1 aminoacylation ribozyme variant] | 1.42 | 1.16 | 1.69 | 1.49 | 1.42 | 1.31
CCAAACUUCAAGCAUUCGGUC [Fam1B.1 aminoacylation ribozyme variant] | 1.83 | 1.75 | 1.84 | 1.86 | 2.1 | 1.96
AUUCACUUAGGUCAUUGGGUG [Fam2.2 aminoacylation ribozyme variant] | 3.64 | 3.76 | 4.48 | 2.39 | 2.3 | 25.2
CUACAUCAAACAACCGGUCUG [Fam1A.1 aminoacylation ribozyme variant] | 1.31 | 1.47 | 1.14 | 1.11 | 0.885 | 1.22
AUUACCCUGGUGAUCGAUUGA [Fam2.1 aminoacylation ribozyme variant] | 1.39 | 0.834 | 1.09 | 0.859 | 1.03 | 0.845
CUACUUCAUACAAUCGUUCUG [Fam1A.1 aminoacylation ribozyme variant] | 0.476 | 0.371 | 0.477 | 0.655 | 0.535 | 0.733

Sequence | self-aminoacylation (biotinyl-Met-oxazolone) | self-aminoacylation (biotinyl-Trp-oxazolone) | self-aminoacylation (biotinyl-Leu-oxazolone) | self-aminoacylation (biotinyl-Val-oxazolone) | self-aminoacylation (biotinyl-Ile-oxazolone) | self-aminoacylation (biotinyl-Phe-oxazolone)
AUUCACCUAGGACAUCGGAUG [Fam2.2 aminoacylation ribozyme variant] | 1.06 | 0.529 | 0.999 | 1.29 | 0.988 | 0.553
AAUACCCUGGUCAUCGAGCGA [Fam2.1 aminoacylation ribozyme variant] | 2.03 | 2.75 | 1.55 | 1.66 | 1.65 | 1.56
AUUACCCUGGCCAGCGAGUGA [Fam2.1 aminoacylation ribozyme variant] | 5 | 4.9 | 4.29 | 3.29 | 2.73 | 18
AUUACCCUGGACAUCGACUGA [Fam2.1 aminoacylation ribozyme variant] | 0.616 | 0.238 | 0.529 | 0.626 | 0.543 | 0.713
AUUAACCUGGUCAUCCAGUGA [Fam2.1 aminoacylation ribozyme variant] | 4.16 | 5.64 | 4.45 | 2.56 | 2.38 | 18.6
AUUCACCUGGGUCAUCCGGUG [Fam2.2 aminoacylation ribozyme variant] | 11.2 | 9.13 | 13.3 | 7.4 | 7.06 | 75.6
AUUCACCUACGUCACCGGGUG [Fam2.2 aminoacylation ribozyme variant] | 4.43 | 3.84 | 5.96 | 2.84 | 2.72 | 36.4
AAGUUUGCUAAUAGGGGCAAG [Fam3.1 aminoacylation ribozyme variant] | 0.663 | 0.665 | 0.505 | 0.649 | 0.686 | 1.08
AUUCACCUAGGUCGUCGGAUG [Fam2.2 aminoacylation ribozyme variant] | 0.982 | 0.507 | 0.929 | 1.12 | 0.909 | 0.37
AUUCGCCUAGGUCAUCGGAUG [Fam2.2 aminoacylation ribozyme variant] | 0.94 | 0.704 | 0.903 | 1.07 | 0.941 | 0.493
AUUAAGCUAGGUCAUCGGGUG [Fam2.2 aminoacylation ribozyme variant] | 3.88 | 4.85 | 5.1 | 3.77 | 3.11 | 34.3
AAGUUUGCUAGUUGUCGCAAG [Fam3.1 aminoacylation ribozyme variant] | 0.898 | 1.18 | 1.16 | 1.08 | 1.07 | 3.68
AAGUUUGCCAAUAGUCACAAG [Fam3.1 aminoacylation ribozyme variant] | 1.56 | 1.04 | 1.07 | 1.23 | 1.55 | 1.1
AGUACCCUGGUCAUCGAGCGA [Fam2.1 aminoacylation ribozyme variant] | 2.19 | 1.89 | 2.28 | 1.9 | 1.94 | 1.16
CUUCUUCAAACACUCGGUCUG [Fam1A.1 aminoacylation ribozyme variant] | 1.04 | 0.901 | 0.791 | 0.977 | 0.938 | 0.651
UCUCACUUCAAGCAAUCGGUC [Fam1B.1 aminoacylation ribozyme variant] | 1.15 | 21.5 | 1.71 | 1.35 | 1.23 | 44.5
GGUCACCUAGGUCAUCGGGUG [Fam2.2 aminoacylation ribozyme variant] | 4.37 | 6.88 | 3.98 | 5.01 | 4.07 | 30.3
AUUCAGCUAGGUCAUUGGGUG [Fam2.2 aminoacylation ribozyme variant] | 2.62 | 3.25 | 2.38 | 2.55 | 2.04 | 15
AUUCACCAAGGUCACCGGGUG [Fam2.2 aminoacylation ribozyme variant] | 8.25 | 5.09 | 9.86 | 6.12 | 5.1 | 55.5
CCACUUCAAACACUCGGUCUG [Fam1A.1 aminoacylation ribozyme variant] | 1.75 | 1.5 | 1.73 | 2.14 | 1.45 | 4.37
AUUUACCUAGGUGAUCGGGUG [Fam2.2 aminoacylation ribozyme variant] | 2.64 | 2.89 | 3.24 | 2.45 | 2.46 | 15
